The values that follow come from US5910570A, “Cloned DNA encoding a UDP-GalNAc: polypeptide N-acetylgalactosaminy-ltransferase” (Pharmacia & Upjohn Company, priority 1997, dated 1999).

Where “and” joins values, the source holds several entries; their conditions need not be identical. Identical values can stand only once.

Test [1] addresses T1, bovine colostrum GalNAc-transferase (Bos taurus, UniProt Q07537).
T1 sequence (Q07537 41-559 limits assumed): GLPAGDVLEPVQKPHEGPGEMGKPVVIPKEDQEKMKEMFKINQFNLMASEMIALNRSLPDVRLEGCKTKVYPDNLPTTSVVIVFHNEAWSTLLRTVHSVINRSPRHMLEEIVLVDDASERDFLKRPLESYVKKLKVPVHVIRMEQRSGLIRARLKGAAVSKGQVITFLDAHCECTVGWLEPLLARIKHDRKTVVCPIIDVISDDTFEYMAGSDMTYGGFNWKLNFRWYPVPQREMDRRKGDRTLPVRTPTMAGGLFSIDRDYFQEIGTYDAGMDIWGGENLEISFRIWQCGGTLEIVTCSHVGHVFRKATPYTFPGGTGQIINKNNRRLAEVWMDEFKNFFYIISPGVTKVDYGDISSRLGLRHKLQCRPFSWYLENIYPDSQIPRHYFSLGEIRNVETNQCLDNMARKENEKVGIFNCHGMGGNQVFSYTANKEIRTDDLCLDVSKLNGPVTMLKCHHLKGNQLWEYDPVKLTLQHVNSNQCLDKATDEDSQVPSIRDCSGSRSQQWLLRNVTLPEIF
More on the design: host or cells: bovine colostrum. The conditions noted are these: Elhammer and Kornfeld, 1986; read-out: Km for UDP-GalNAc; cited from earlier work.

Test [2] concerns GalNAc-transferase purified from porcine submaxillary glands. The conditions noted are these: Wang et al., 1992; read-out: Km for UDP-GalNAc; cited from earlier work.
Test [3] has as its target T2, cloned soluble GalNAc-transferase (GalNAcTs) (Bos taurus, UniProt Q07537).
T2 construct: The plasmid pAC373-GalNAcT (Homa et al., 1993) which contains the full length GalNAc-transferase gene; honeybee melittin signal peptide (21 aa) (N, cleaved yes); made in house; host or cells: Sf9 cells / baculovirus, purified from serum-free culture medium on apomucin-Sepharose
T2 sequence (Q07537 48-559 limits assumed): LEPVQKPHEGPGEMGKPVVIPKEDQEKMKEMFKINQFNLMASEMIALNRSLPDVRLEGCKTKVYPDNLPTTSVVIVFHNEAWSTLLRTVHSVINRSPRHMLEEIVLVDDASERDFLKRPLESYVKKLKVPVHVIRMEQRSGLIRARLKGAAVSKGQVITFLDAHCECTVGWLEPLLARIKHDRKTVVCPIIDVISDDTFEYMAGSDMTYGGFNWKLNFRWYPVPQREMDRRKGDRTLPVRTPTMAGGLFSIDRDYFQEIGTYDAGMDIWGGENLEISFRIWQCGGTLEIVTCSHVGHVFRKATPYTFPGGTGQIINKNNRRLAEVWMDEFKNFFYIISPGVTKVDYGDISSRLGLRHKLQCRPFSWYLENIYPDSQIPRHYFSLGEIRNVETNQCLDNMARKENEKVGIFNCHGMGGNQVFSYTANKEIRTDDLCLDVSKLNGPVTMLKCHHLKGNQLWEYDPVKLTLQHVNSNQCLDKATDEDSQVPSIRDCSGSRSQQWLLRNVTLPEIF
Briefly: Kinetic parameters with the cloned soluble GalNAc-transferase (Bond Elut assay). It counts as biochemical, bovine. The note with it: read-out: Km for UDP-GalNAc.

The target of test [4] is T1, bovine colostrum GalNAc-transferase. Briefly: Transfer of N-acetylgalactosamine to protein acceptors. The note with it: for acceptor activity (in words): native or reduced and carboxymethylated state. It counts as biochemical. More on the design: from tissue; host or cells: bovine colostrum. As to the method: The above conclusions and the predictions of the specificity algorithm are validated experimentally by studying the ability of bovine colostrum GalNAc-transferase to transfer N-acetylgalactosamine to a variety of acceptors, both native proteins and synthetic acceptor peptides. The transfer of N-acetylgalactosamine to protein acceptors is assayed as described by Elhammer and Kornfeld, 1986, with minor modifications. The concentration of UDP-GalNAc is saturating in all assays; a Km of 8 μM is reported for bovine colostrum GalNAc-transferase (Elhammer and Kornfeld, 1986).
The transfer of N-acetylgalactosamine to protein acceptors was assayed
under standard conditions (see Material and Methods). The acceptor
concentration was 65 μM, the enzyme concentration approximately 65
mU/ml and assay time was 60 minutes. The transfer to both native and
reduced-carboxymethylated acceptors was assayed.

For the compound `CC(=O)N[C@H]1[C@@H](OP(=O)(O)OP(=O)(O)OC[C@H]2O[C@@H](n3ccc(=O)[nH]c3=O)[C@H](O)[C@@H]2O)O[C@H](CO)[C@H](O)[C@@H]1O` [UDP-GalNAc, UDP-N-acetylgalactosamine], the Km (usually the substrate concentration at which the rate is half of its maximum) is 8 µM in test [1]; 6 µM in test [2]; ~1.7 µM and 1.7 µM in test [3].

Take “Bovine cytochrome C: protein with one Ser and eight Thr residues but no predicted potential sites”: in test [4] (native acceptor 65 μM, enzyme approx. 65 mU/ml, 60 minutes), the “Product formed, Native” value is under 0.1 nmol/min/mg. The “acceptor activity (in words)” value was “not an acceptor” in test [4] (listed as bovine cytochrome C) and “completely inactive as an acceptor” in test [4] (listed as cytochrome C). Further, the “Product formed, Reduced and carboxymethylated” value in test [4] (reduced and carboxymethylated acceptor 65 μM, enzyme approx. 65 mU/ml, 60 minutes) is under 0.1 nmol/min/mg.
